Measured values published in PMC6860926 (Journal of the American Chemical Society, 2019).

Target: human GLP-1 receptor (GLP-1R), stably expressed in FlpIn CHO cells (human) (UniProt P43220)
Chain of UniProt P43220 (P43220 24-463): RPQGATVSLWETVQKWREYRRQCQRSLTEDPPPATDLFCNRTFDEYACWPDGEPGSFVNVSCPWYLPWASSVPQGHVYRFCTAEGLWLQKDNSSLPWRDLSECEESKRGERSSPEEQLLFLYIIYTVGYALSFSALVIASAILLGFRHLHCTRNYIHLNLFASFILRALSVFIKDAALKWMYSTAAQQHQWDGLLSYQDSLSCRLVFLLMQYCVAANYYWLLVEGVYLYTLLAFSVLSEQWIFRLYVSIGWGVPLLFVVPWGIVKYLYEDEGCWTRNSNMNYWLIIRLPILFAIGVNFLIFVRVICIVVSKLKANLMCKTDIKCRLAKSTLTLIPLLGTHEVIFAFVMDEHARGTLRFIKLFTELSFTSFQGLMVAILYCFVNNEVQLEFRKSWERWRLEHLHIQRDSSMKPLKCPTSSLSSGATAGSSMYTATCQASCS

cAMP accumulation in FlpIn CHO cells stably expressing human GLP-1R, pEC50: 10.8
Substance: glucagon-like peptide-1 [GLP-1(7–37)]
